Test [1] addresses T1, EDD protein, full length (aa 1-2799) (human, UniProt O95071 1-2799, EDD is phosphorylated in cells; the residue involved has not yet been identified).
T1 construct: also called in vitro translated 35S-labelled EDD; endogenous EDD
Description: GST pull-down from MCF-7 nuclear extracts, EDD western blot. On the procedure: For GST fusion protein pull-down of endogenous or recombinant EDD from cell lysates, 0.5 to 1 mg total protein was incubated with 5 μg GST or GST fusion protein bound to glutathione beads for 1-2 h at 4° C. Beads were washed extensively in 1% Triton X-100 lysis buffer and bound proteins resolved by SDS-PAGE and detected by immunoblotting with EDD antisera (Callaghan et al, Oncogene 17, 3479-3491, 1998). For immunoprecipitation, 10 μl importin α5 antisera (Peter Palese, Mount Sinai School of Medicine) was incubated with 0.5 to 1 mg cell lysate (4° C. for 1 h). Antibody conjugates were captured on protein A sepharose beads (4° C. for 1 h) and washed extensively in lysis buffer. Bound proteins were resolved by SDS-PAGE followed by immunoblotting with EDD antisera.
(§1) To determine the requirement for the chk2 FHA domain in this interaction, the binding between EDD and GSTchk2-N and two mutants was assessed. The R117A mutant contains a substitution within the FHA domain and involves a residue directly required for phosphothreonine binding.
A general note: A western blot detects proteins with antibodies after separation by electrophoresis.

Test [2] deals with T2, EDDF5, central plus C-terminal domains of EDD (aa 889-2799) (human, UniProt O95071 889-2799, binding suggested to be mediated by a phosphorylated threonine residue; residue not identified).
T2 construct: In vitro translated, 35S-labelled; also called carboxyl two-thirds of EDD
Nature of the test: GST pull-down of IVT 35S-EDDF5. On the procedure: as §1

In test [3] the target is T3, EDDF3, carboxy domain of EDD (aa 1877-2799) (human, UniProt O95071 1877-2799).
T3 construct: In vitro translated, 35S-labelled; also called carboxy third; carboxy terminal region of EDD
T3 sequence: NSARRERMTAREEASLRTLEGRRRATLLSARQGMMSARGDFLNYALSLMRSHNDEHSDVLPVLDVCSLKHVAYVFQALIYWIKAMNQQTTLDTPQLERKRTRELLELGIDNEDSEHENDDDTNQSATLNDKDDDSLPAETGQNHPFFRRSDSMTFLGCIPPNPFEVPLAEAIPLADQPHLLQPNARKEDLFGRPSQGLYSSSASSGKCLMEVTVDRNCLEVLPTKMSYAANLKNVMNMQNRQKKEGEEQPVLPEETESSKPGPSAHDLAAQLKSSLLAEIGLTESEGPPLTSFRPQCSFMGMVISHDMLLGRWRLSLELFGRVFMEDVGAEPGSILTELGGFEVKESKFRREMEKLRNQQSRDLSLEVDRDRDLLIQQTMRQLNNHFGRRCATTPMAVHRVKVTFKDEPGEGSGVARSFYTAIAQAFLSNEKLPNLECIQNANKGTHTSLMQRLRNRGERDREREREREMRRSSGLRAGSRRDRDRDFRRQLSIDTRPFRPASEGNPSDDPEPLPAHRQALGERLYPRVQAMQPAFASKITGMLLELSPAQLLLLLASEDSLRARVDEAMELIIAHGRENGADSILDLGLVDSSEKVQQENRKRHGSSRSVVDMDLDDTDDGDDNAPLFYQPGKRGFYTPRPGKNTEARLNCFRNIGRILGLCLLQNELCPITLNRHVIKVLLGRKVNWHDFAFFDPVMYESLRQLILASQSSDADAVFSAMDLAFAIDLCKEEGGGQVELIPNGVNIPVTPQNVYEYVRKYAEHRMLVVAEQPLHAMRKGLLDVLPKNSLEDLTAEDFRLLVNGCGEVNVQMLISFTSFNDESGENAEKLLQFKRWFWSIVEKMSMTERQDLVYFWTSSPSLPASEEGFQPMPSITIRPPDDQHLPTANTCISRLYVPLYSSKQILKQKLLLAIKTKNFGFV
Nature of the test: GSTchk2-N pull-down of IVT EDD deletion mutants.

For test [4], the target named is T4, EDDF2, central domain of EDD (aa 889-1877) (human, UniProt O95071 889-1877).
T4 construct: In vitro translated, 35S-labelled; also called central third; central region of EDD
T4 sequence: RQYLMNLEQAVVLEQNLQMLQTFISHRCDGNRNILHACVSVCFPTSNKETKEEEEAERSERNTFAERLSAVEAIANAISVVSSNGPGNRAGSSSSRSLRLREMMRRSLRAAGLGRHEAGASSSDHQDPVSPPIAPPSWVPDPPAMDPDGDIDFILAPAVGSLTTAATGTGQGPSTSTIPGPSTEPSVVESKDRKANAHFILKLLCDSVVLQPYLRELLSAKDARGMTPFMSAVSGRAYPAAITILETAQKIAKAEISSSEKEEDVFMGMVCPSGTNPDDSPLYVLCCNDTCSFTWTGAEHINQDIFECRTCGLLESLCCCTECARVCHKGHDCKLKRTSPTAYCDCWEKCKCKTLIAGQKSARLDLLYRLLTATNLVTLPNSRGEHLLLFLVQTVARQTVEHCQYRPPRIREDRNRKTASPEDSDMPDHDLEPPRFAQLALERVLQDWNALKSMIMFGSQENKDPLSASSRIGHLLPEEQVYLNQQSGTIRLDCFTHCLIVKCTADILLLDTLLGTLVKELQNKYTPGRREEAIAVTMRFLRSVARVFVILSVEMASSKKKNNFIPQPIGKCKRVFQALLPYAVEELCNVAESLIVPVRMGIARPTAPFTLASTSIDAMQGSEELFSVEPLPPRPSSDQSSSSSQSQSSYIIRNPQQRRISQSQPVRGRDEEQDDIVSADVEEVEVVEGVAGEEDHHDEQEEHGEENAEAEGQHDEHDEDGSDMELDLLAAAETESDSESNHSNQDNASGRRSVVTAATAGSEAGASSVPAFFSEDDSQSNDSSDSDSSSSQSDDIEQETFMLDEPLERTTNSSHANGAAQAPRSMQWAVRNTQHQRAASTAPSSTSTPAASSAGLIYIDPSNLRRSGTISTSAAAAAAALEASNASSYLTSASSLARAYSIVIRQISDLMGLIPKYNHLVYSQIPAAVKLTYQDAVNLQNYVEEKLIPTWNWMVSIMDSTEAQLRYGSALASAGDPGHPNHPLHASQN
Description: GSTchk2-N pull-down of IVT EDD deletion mutants.

B1: GSTchk2-N derivative containing an R117A substitution (other)
chain: MSRESDVEAQQSHGSSACSQPHGSVTQSQGSSSQSQGISSSSTSTMPNSSQSSHSSSGTLSSLETVSTQELYSIPEDQEPEDQEPEEPTPAPWARLWALQDGFANLECVNDNYWFGADKSCEYCFDEPLLKRTDKYRTYSKKHFRIFREVGPKNSYIAYIEDHSGNGTFVNTELVGKGKRRPLNNNSEIALSLSRNKVFVFFDLTVDDQSVYPKALRDEYIMSKT
notes: also called GSTchk2-N R117A; R117A mutant; not shown: GST fusion partner at the N end and any vector linker
Turning to B1, the binding result in test [1] and in test [2] was “no binding” in each case.

B2: GSTchk2-N (GST fused to chk2 aa 1-225) (other)
chain: MSRESDVEAQQSHGSSACSQPHGSVTQSQGSSSQSQGISSSSTSTMPNSSQSSHSSSGTLSSLETVSTQELYSIPEDQEPEDQEPEEPTPAPWARLWALQDGFANLECVNDNYWFGRDKSCEYCFDEPLLKRTDKYRTYSKKHFRIFREVGPKNSYIAYIEDHSGNGTFVNTELVGKGKRRPLNNNSEIALSLSRNKVFVFFDLTVDDQSVYPKALRDEYIMSKT
notes: contains the SQ/TQ and FHA domains; also called GSTCHK2-N (WT); chk2 N-terminus; not shown: glutathione S-transferase (GST) fusion partner
On to B2, for which the binding result in test [3] and in test [4] was “no binding” in each case.

These data come from patent US20060147922A1 (published 2006).
